Laboratory results reported in paper PMC8251270 (2021).

Molecular target: recombinant receptor‐binding motif (RBM) of SARS‐CoV‐2 spike (S) protein, residue 437–508 (SARS-CoV-2, UniProt P0DTC2 437-508)
Assay: SPR

B1: mAb8 (antibody, V domains shown)
VH: DVKLVESGGGLVKLGGSLKLSCAASGFTFSTDYMSWVRQSPEKRLELVAAINSNGGTTYYPDTVKGRFIISRDNAKNTLYLQMSSLRSEDTALYYCARQVKNGLDYWGQGTSVTVSS
VL: DIQMTQTTSSLSASLGDRVTISCRASQDISNYLNWYQQKPDGTVKLLIYKTSRLHSGVPSRFRGSGSGTDYSLTISNLEEEDVATYFCQQGNTLPPTFGGGTKLEIK
Kd: 57.4 nM
